Measured values reported in the supplement of paper PMC9170038.

Tested on: MS2 coat protein
Test: apparent KD of MS2 coat protein; higher = weaker reporter binding
Conditions: Eterna round: R107
Protocol: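 RNA-MaP round R107: designed RNA switches with theophylline, tryptophan, arginine or FMN aptamers are transcribed on-chip within common flanks. They are titrated with SNAP-549-labelled MS2 coat protein in RNA-MaP buffer (100 mM Tris pH 7.5, 80 mM KCl, 4 mM MgCl2), without ligand or with the indicated ligand. Median apparent KD per design.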

[1] = input ligand: theophylline 20 uM
[2] = input ligand: theophylline 2 mM
[3] = input ligand: tryptophan 2.4 mM

ACAUGAGGAUCACCCAUGUAAAUAGCGGAAGGAGCGUGCAAAAGCACAGGUAGGUCGCCGAUAUAAUAAUUGGGUAAUAUAUUAU [#27 Exclusion - Arginine A]
apparent KD of MS2 coat protein (input ligand: arginine 13.2 mM): 17.7 nM
apparent KD of MS2 coat protein (input ligand: none): 39.1 nM
apparent KD of MS2 coat protein [1]: 24.6 nM
apparent KD of MS2 coat protein [2]: 26.2 nM
apparent KD of MS2 coat protein [3]: 26.9 nM

ACAUGAGGAUCACCCAUGUAACGGCAUAAUCGAGGACCGGUACGGCCGCCACUCGGAAUCAGUGACAGGCAUAUUUAUUAUAAGA [Eclusion - Tryptophan A / A]
apparent KD of MS2 coat protein (input ligand: arginine 13.2 mM): 12 nM
apparent KD of MS2 coat protein [1]: 15.6 nM
apparent KD of MS2 coat protein [2]: 11.5 nM

ACAUGAGGAUCACCCAUGUAAGAUUCAGAAGGAGCGGGAAAUAACCCAGGUAGGUCGCUGAAGUUUGGUUUAUUGUGUUCGUGAA [#07 Exclusion - Arginine A]
apparent KD of MS2 coat protein (input ligand: arginine 13.2 mM): 10.2 nM
apparent KD of MS2 coat protein (input ligand: none): 10.4 nM
apparent KD of MS2 coat protein [1]: 13.3 nM
apparent KD of MS2 coat protein [2]: 11.5 nM
apparent KD of MS2 coat protein [3]: 11.5 nM

ACAUGAGGAUCACCCAUGUCAUGAGGUUCACGAGGACCGGUACGGCCGCCACUCGACAUGAGGGUCACCCGUGAACGGAACACCC [kpmullin]
apparent KD of MS2 coat protein (input ligand: arginine 13.2 mM): 14.7 nM
apparent KD of MS2 coat protein [1]: 23.6 nM
apparent KD of MS2 coat protein [2]: 17.7 nM

ACAUGAGGAUCACCCAUGUCUGCCACUGAUACCAGCGGAAGCCCACGCCCUUGGCAGCAGAACAUGAGGAUCACCCAUGUAGGCU [Same State Theophylline A GF28]
apparent KD of MS2 coat protein (input ligand: arginine 13.2 mM): 55.8 nM
apparent KD of MS2 coat protein [1]: 186 nM
apparent KD of MS2 coat protein [3]: 201 nM

ACAUGAGGAUCACCCAUGUGAAGCAGGGUACGAGGACCGGUACGGCCGCCACUCGAACAUUAUAACGAGUGAAUGGCAACGAUGU [B15Jan]
apparent KD of MS2 coat protein (input ligand: arginine 13.2 mM): 15.7 nM
apparent KD of MS2 coat protein [1]: 18.5 nM
apparent KD of MS2 coat protein [2]: 13.8 nM

ACAUGAGGAUCACCCAUGUGAAGGCACGAUACCAGCUGAUCCCGUGGCCCUUGGCAGCGUCACGUUUGGUCCCGCGGAUGAGACG [crcmullin]
apparent KD of MS2 coat protein (input ligand: arginine 13.2 mM): 20.8 nM
apparent KD of MS2 coat protein (input ligand: none): 14.2 nM
apparent KD of MS2 coat protein [1]: 21.5 nM
apparent KD of MS2 coat protein [2]: 17 nM
apparent KD of MS2 coat protein [3]: 13.8 nM

ACAUGAGGAUCACCCAUGUUCCUCAUUGAUACCAGUGAAUUUAGACGCCCUUGGCAGCGAGUUUUUGAAGAAGAAGUUUUUUUUU [6.D]
apparent KD of MS2 coat protein (input ligand: arginine 13.2 mM): 235 nM
apparent KD of MS2 coat protein [1]: 731 nM
apparent KD of MS2 coat protein [3]: 1080 nM

ACAUGAGGAUCACCCAUGUUCCUCAUUGAUACCAGUGAAUUUAGACGCCCUUGGCAGCGAGUUUUUUAAGAAGAAGUUUUUUUUU [6.E]
apparent KD of MS2 coat protein (input ligand: arginine 13.2 mM): 551 nM
apparent KD of MS2 coat protein [1]: 793 nM
apparent KD of MS2 coat protein [3]: 992 nM

ACAUGAGGAUCACCCAUGUUCCUCUUUGAUACCAGUGAGUUGUUUCGCCCUUGGCAGCGAGUUUUUUUUUUUUUGUUUUGUUUGG [6.R]
apparent KD of MS2 coat protein (input ligand: arginine 13.2 mM): 173 nM
apparent KD of MS2 coat protein [1]: 351 nM
apparent KD of MS2 coat protein [3]: 264 nM

ACCUGUACGAAAAGUGCAGGACACGGAAUACGAGGACCGGUACGGCCGCCACUCGGAAUAAACCUGAGGAUCACCCUGGUCCGUG [TrypAS 9 #AlternativeMS2 #Zipper #StaticStem]
apparent KD of MS2 coat protein (input ligand: arginine 13.2 mM): 26.8 nM
apparent KD of MS2 coat protein (input ligand: none): 25.1 nM
apparent KD of MS2 coat protein [1]: 39.1 nM
apparent KD of MS2 coat protein [2]: 34.4 nM
apparent KD of MS2 coat protein [3]: 32.2 nM

ACGUCACGUUUACUCGUGGUUUCGAUCGAUACCAGUAGCGAGAGUUACCCUUGGCAGCGACAUGAGGAUCACCCAUGUACGAAGA [XTheo A #25]
apparent KD of MS2 coat protein (input ligand: arginine 13.2 mM): 10.8 nM
apparent KD of MS2 coat protein [1]: 14.5 nM
apparent KD of MS2 coat protein [3]: 12 nM

ACGUCCGGGUUAAUCGUGGGCAUGGUCGAUACCAGUAUUUUAAUCUACCCUUGGCAGCGACAUGAGGAUCACCCAUGUGCGAUGA [XTheo A #17]
apparent KD of MS2 coat protein (input ligand: arginine 13.2 mM): 15.5 nM
apparent KD of MS2 coat protein [1]: 22.8 nM
apparent KD of MS2 coat protein [3]: 17 nM

ACGUCGCAUAGGAAAACUAUGUGACGAAAUCGAGGACCGGUACGGCCGCCACUCGUCCUCAACAUGAGGAUCACCCAUGUAAUAA [Mat - Exclusion - Trytophan A - D7]
apparent KD of MS2 coat protein (input ligand: arginine 13.2 mM): 19.3 nM
apparent KD of MS2 coat protein [1]: 23.3 nM
apparent KD of MS2 coat protein [2]: 22.3 nM

ACUAGUUGUGCAGAUACCAGACACGAGGAUCACCCGUGUUUGGGAUGUUCGCAUCUUCCUGUCCCUUGGCAGCUGUACAUCUAGA [Omei Theo B Exc v8]
apparent KD of MS2 coat protein (input ligand: arginine 13.2 mM): 15.8 nM
apparent KD of MS2 coat protein (input ligand: none): 15.1 nM
apparent KD of MS2 coat protein [1]: 23.5 nM
apparent KD of MS2 coat protein [2]: 221 nM
apparent KD of MS2 coat protein [3]: 17 nM

ACUGGAGGUGGAAGGAGCGGGAGACAUGAGCAUCACAUGAGGAUCACCCAUGUAGGAUCAUCCCAGGUAGGUCGCCAUGUCGAAA [rtfemullin]
apparent KD of MS2 coat protein (input ligand: arginine 13.2 mM): 120 nM
apparent KD of MS2 coat protein (input ligand: none): 276 nM
apparent KD of MS2 coat protein [1]: 292 nM
apparent KD of MS2 coat protein [2]: 431 nM
apparent KD of MS2 coat protein [3]: 189 nM

AGAAUAACACAUGAGGAUCACCCAUGUGAUACCAGCUAGGAAACUAGCCCUUGGCAGCACAUAAGGUGAUCCAGCUGCCAAGAAU [(M1)-(M2)-(T1)-(T2)-(M)'-(T)'_Design1_2/19/17]
apparent KD of MS2 coat protein (input ligand: arginine 13.2 mM): 65.2 nM
apparent KD of MS2 coat protein [1]: 175 nM
apparent KD of MS2 coat protein [3]: 102 nM

AGACACAUGAGGAUCACCCAUGUACACGAGCGAGGACCGGUACGGCCGCCACUCGUCCAAGCAACUAAUGAGACUCGUAAGAUGG [theeternabot_sameState_MS2_Trp_A_5]
apparent KD of MS2 coat protein (input ligand: arginine 13.2 mM): 17.1 nM
apparent KD of MS2 coat protein [1]: 31.6 nM
apparent KD of MS2 coat protein [2]: 23.4 nM

AGACAUGAGGAUCACCCAUGUAGCAUGGAUACCAGAUCCAGAUUUAUCCCUUGGCAGCUGUGGUACAGUGAUGGAUUGCUCCUAG [Exclusion - Theophylline A (Freestyle 8)]
apparent KD of MS2 coat protein (input ligand: arginine 13.2 mM): 46.3 nM
apparent KD of MS2 coat protein [1]: 93.6 nM
apparent KD of MS2 coat protein [3]: 61.9 nM

AGACAUGAGGAUCACCCAUGUAGCAUGGAUACCAGAUGUAGAUUUAUCCCUUGGCAGCUGUGGUAAAGUGAUGCAUUGCUCCUAG [Exclusion - Theophylline A (Freestyle 5)]
apparent KD of MS2 coat protein (input ligand: arginine 13.2 mM): 28.5 nM
apparent KD of MS2 coat protein [1]: 50.1 nM
apparent KD of MS2 coat protein [3]: 34 nM

AGACUUCGCAUAGGAAAACUAUGUGAAGUCCGAGGACCGGUACGGCCGCCACUCGUCCUCAACAUGAGGAUCACCCAUGUAAUAA [#OpenEnded #CuTurnoff #Tail]
apparent KD of MS2 coat protein (input ligand: arginine 13.2 mM): 21.1 nM
apparent KD of MS2 coat protein [1]: 26 nM
apparent KD of MS2 coat protein [2]: 23.5 nM

AGAGCAUUGACGGCCGCCACUCAUGUCACAUGAGGAUCACCCAUGUGAUGGGUAAUUGCCCGGUUGAGGACCGGGUCAAUGCUCA [Omei Tryp SS B v4]
apparent KD of MS2 coat protein (input ligand: arginine 13.2 mM): 5.88 nM
apparent KD of MS2 coat protein (input ligand: none): 8.32 nM
apparent KD of MS2 coat protein [1]: 11.3 nM
apparent KD of MS2 coat protein [2]: 10.1 nM
apparent KD of MS2 coat protein [3]: 9.74 nM

AGAGCAUUGACGGCCGCCACUCAUGUCACAUGAGGAUCACCCAUGUGAUGGGUGAUAGCCCGGUUGAGGACCGGGUCAAUGCUCA [Omei Tryp SS B v1]
apparent KD of MS2 coat protein (input ligand: arginine 13.2 mM): 18.4 nM
apparent KD of MS2 coat protein [1]: 25.3 nM
apparent KD of MS2 coat protein [2]: 20.4 nM

AGAGCAUUGACGGCCGCCACUCGUGUCACAUGAGGAUCACCCAUGUGAUGGGUGAUAGCCCGGUUGAGGACCGGGUCAAUGCUCA [Omei Tryp SS B v7]
apparent KD of MS2 coat protein (input ligand: arginine 13.2 mM): 13.1 nM
apparent KD of MS2 coat protein [1]: 16.8 nM
apparent KD of MS2 coat protein [2]: 16.2 nM

AGAGUCAGACAAAAGUCUGGCUCAGCCGAAGGAGCGUCCGAAAGGACAGGUAGGUCGCGGUUACAUGAGGAUCACCCAUGUUCCU [ArgAS 7 #OpenEnded]
apparent KD of MS2 coat protein (input ligand: arginine 13.2 mM): 66.8 nM
apparent KD of MS2 coat protein (input ligand: none): 136 nM
apparent KD of MS2 coat protein [1]: 177 nM
apparent KD of MS2 coat protein [2]: 184 nM
apparent KD of MS2 coat protein [3]: 145 nM

AGAUGCCACUGUGGAUAGCACGAUGCCGAUACCAGCUAGGAAACUAGCCCUUGGCAGCGGUACAUGAGGAUCACCCAUGUAUCCU [EThA NP+V+V2 #9]
apparent KD of MS2 coat protein (input ligand: arginine 13.2 mM): 12.2 nM
apparent KD of MS2 coat protein [1]: 18.3 nM
apparent KD of MS2 coat protein [3]: 12.9 nM

AGAUUCGACACGGCCGCCACUUUCAGUGGCUGGUGUCAUGGUGCACAUGAGGAUCACCCAUGUGGAAGGACCGGGUGUUGAGUCU [XTryp B #26]
apparent KD of MS2 coat protein (input ligand: arginine 13.2 mM): 12.3 nM
apparent KD of MS2 coat protein [1]: 21.8 nM
apparent KD of MS2 coat protein [2]: 17.2 nM

AGCAACAAGUCGGCCGCCACUCAAUAAACAUGAGGAUCACCCAUGUAAAUAACAUGAUAAUAAUAGAGGACCGGGACAGUUGCAU [JR_SSTryptoB_Sub015]
apparent KD of MS2 coat protein (input ligand: arginine 13.2 mM): 13 nM
apparent KD of MS2 coat protein [1]: 17.1 nM
apparent KD of MS2 coat protein [2]: 15.1 nM
